{"source": "patent US20230242601A1", "about": "“PEPTIDE USED TO PREVENT OR TREAT SYNUCLEINOPATHY” (TOHOKU UNIVERSITY, priority 2020, published 2023)", "key": {"FABP3": {"target": "FABP3 (Homo sapiens, UniProt P05413)", "sequence (P05413 2-133 limits assumed)": "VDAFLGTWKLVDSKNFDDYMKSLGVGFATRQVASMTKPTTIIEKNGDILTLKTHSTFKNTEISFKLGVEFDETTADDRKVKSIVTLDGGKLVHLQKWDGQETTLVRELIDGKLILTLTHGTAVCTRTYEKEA", "assay": "QCM (quartz crystal microbalance) binding analysis of immobilized FABP3 with α-synuclein or its peptides", "details": "for binding affinity for FABP3 relative to the natural sequence (SynP130-140) / binding affinity for FABP3 compared with the natural sequence (SynP130-140), in words: immobilized FABP3; for binding to FABP3: His-tagged FABP3 immobilized, 2.5-20 nM analyte, 50 mM Tris-HCl pH 7.4, 25° C.", "experimental": "The substrate was washed with purified water, then 500 μL of a Ni solution (20 mM HEPES-NaOFH buffer, pH 7.5, 150 mM NaCl, 50 mM EDTA, 10 mM NiSO4) was added, and the substrate was allowed to stand at room temperature for 10 minutes. The substrate was washed with purified water, then 100 nM of FABP3 fused with a His-tag at the N-terminus diluted with a 50 mM Tris-HCl pH 7.4 was added to a quartz sensor and treated for one minute to be immobilized. […] The measurement was performed in a 500 μL liquid under conditions of 25° C. and 1000 rpm for three minutes. After the measurement, Kd, kon, and koff were each calculated with AQUA 2.0 software (Initium).\nFABP3 and various mutants of SynP130-140 were interacted in the same manner as in Example 1. The measurement was performed by adding each peptide at any concentration to the immobilized FABP3.\nThe detailed experimental method is as described in the method of Example 1."}, "[1]": {"target": "α-synuclein and FABP3 (Syn-FABP3 complex) (Homo sapiens, UniProt P05413)", "sequence (P05413 whole entry, species assumed, one chain of several)": "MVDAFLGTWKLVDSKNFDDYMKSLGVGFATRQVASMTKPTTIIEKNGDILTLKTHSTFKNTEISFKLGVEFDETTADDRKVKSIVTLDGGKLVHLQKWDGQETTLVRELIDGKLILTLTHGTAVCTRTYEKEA", "assay": "Thioflavin T fluorescence / TEM observation of α-synuclein amyloid fibril formation with FABP3 and peptide", "assay_type": "biochemical", "experimental": "An ARVO X4 (Perkin Elmer) was used for shaking and measuring fluorescence values over time in the fibril formation process of Syn. For the measurement, the samples were added to a 96-well plate (8×12-well plate; Greiner, Kremsmuenster, Austria) to give 150 μL/well, and the fluorescence (Ex of 440 nm and Em of 486 nm) was measured every 15 minutes while the well plate was continuously shaken at 37° C. […] Samples after 1800 minutes obtained after the measurement were measured with a transmission electron microscope (TEM) (JEOL JEM-1400 Plus). To a collodion membrane (400 mesh; Nisshin EM, Tokyo, Japan), 10 μL of the sample was added and allowed to stand at room temperature for two minutes, then washed with 5 μL of purified water, stained with 5 μL of a 10% EM stain solution for one minute, and then washed with 5 μL of purified water. This was air-dried overnight and then measured.\nThe thio-T measurement and the measurement with a TEM were performed in the same manner as in Example 3.\nThe thio-T measurement and the measurement with a TEM were performed in the same manner as in Example 3. The Thio-T measurement was performed for samples to each of which SynP130-140 was added at the beginning (0 hour), after 3 hours, 8 hours, or 24 hours."}, "[2]": {"tested_on": "cultured dopaminergic nerve cells", "assay": "Antagonistic effect of C-terminal peptide on uptake of ATTO-550-labeled α-synuclein monomer into cultured dopaminergic nerves", "assay_type": "cell-based, mouse", "details": "1 μM peptide with 1 μM ATTO-550-labeled α-synuclein monomer, 48 hours; p<0.0001 vs control", "experimental": "Cultured dopaminergic nerves were prepared according to the method (Kawahata et al. 2019) already described. Specifically, the uterus was aseptically removed from a C57BL6N mouse on day 15.5 of pregnancy by abdominal midline incision under deep isoflurane anesthesia, and the fetal mesencephalon was removed in ice-cold Hank's balanced salt solution (HBSS) under a stereomicroscope. The tissue was then dispersed by treatment with a nerve cell suspension (Sumitomo Bakelite) at 37° C. for 30 minutes, the dispersion was centrifuged at 1000 rpm for 5 minutes, and then the supernatant was discarded. The cell pellet was dispersed, then a removal solution (Sumitomo Bakelite) was added, and the mixture was centrifuged at 900 rpm for 5 minutes. The supernatant was then removed, the pellet was suspended in Eagle's minimal essential medium (EMEM) and seeded on a poly-L-lysine-coated chamber plate (Iwaki). […] Values are mean±SEM (n>20), and one-way ANOVA with Tukey test was performed for all the groups. The conceptual diagram of the synthesized α-synuclein is illustrated in C."}}, "note": "Where no end group is shown, it is not given here.", "data": [{"substance": "EEGFQDYEPEA [Y133F]", "values": [{"measurement": "Kd", "setting": "FABP3; QCM, binding to FABP3", "value": 0.1, "unit": "nM"}, {"measurement": "binding affinity for FABP3 relative to the natural sequence (SynP130-140)", "setting": "FABP3; QCM", "value": "two-fold stronger"}, {"measurement": "amyloid aggregate formation of α-synuclein, concentration dependence", "setting": "[1]; peptide at 0.1, 0.5 or 1 equivalent to 69 μM α-synuclein and 69 μM FABP3", "value": "preferentially binds to FABP3 in a dose-dependent manner"}]}, {"substance": "EGYQDYEPEA [10aa]", "values": [{"measurement": "intracellular uptake of fluorescently labeled α-synuclein (ATTO fluorescence intensity)", "setting": "[2]", "value": "inhibited the intracellular uptake"}]}, {"substance": "FABP3: fatty acid-binding protein 3", "values": [{"measurement": "aggregation of synuclein on adding FABP3 alone", "setting": "[1]; equimolar FABP3 added to α-synuclein, no peptide, Thio-T", "value": "completely suppressed the aggregation of synuclein"}]}, {"substance": "SynP2-10: peptide of the N-terminal region of human α-synuclein, second to tenth amino acids (DVFMKGLSKA; partial peptide of alpha-synuclein) [reference compound]", "values": [{"measurement": "binding to FABP3", "setting": "FABP3; QCM", "value": "hardly bound to FABP3"}]}, {"substance": "SynP73-96: peptide of the NAC region of human α-synuclein, 73th to 96th amino acids [reference compound]", "values": [{"measurement": "binding to FABP3", "setting": "FABP3; QCM", "value": "hardly bound to FABP3"}]}, {"substance": "SynP130-140: peptide of the C-terminal region of human α-synuclein composed of the 130th to 140th amino acids (EEGYQDYEPEA; partial peptide of alpha-synuclein)", "values": [{"measurement": "affinity for FABP3 compared with Syn", "setting": "FABP3", "value": "stronger affinity for FABP3"}, {"measurement": "binding to FABP3", "setting": "FABP3; QCM", "value": "bound to FABP3 in a dose dependent manner"}, {"measurement": "amyloid fibril aggregate formation of α-synuclein", "setting": "[1]; FABP3, α-synuclein and peptide added simultaneously, 1:1:1 molar ratio (69 μM each), Thio-T, 37° C.", "value": "forms amyloid tibril aggregates"}, {"measurement": "release of Syn from the Syn-FABP3 complex and amyloid fibril formation", "setting": "[1]; equimolar peptide added to the preformed 1:1 complex at 0, 3, 8 or 24 hours", "value": "releases Syn from FABP3"}]}, {"substance": "Y133F/Y136F: SynP130-140 mutant in which tyrosine at position 133 and position 136 were both changed to phenylalanine (EEGFQDFEPEA)", "values": [{"measurement": "binding affinity for FABP3 relative to the natural sequence (SynP130-140)", "setting": "FABP3; QCM", "value": 2, "unit": "fold"}]}, {"substance": "Y133F/Y136W: SynP130-140 mutant with tyrosine 133 changed to phenylalanine and tyrosine 136 changed to tryptophan (EEGFQDWEPEA)", "values": [{"measurement": "binding affinity for FABP3 compared with the natural sequence (SynP130-140), in words", "setting": "FABP3; QCM", "value": "failed to further strengthen the binding affinity"}]}, {"substance": "Y133W/Y136W: peptide in which the 133rd and 136th tyrosines in SynP130-140 were replaced by tryptophans (EEGWQDWEPEA)", "values": [{"measurement": "binding affinity for FABP3 compared with the natural sequence (SynP130-140), in words", "setting": "FABP3; QCM", "value": "did not change the binding affinity"}]}, {"substance": "Y136F: SynP130-140 mutant in which tyrosine at position 136 was changed to phenylalanine (EEGYQDFEPEA)", "values": [{"measurement": "binding affinity for FABP3 compared with the natural sequence (SynP130-140), in words", "setting": "FABP3; QCM", "value": "about the same affinity"}]}, {"substance": "Y136W: peptide in which the 136th tyrosine in SynP130-140 was replaced by tryptophan (EEGYQDWEPEA)", "values": [{"measurement": "binding affinity for FABP3 compared with the natural sequence (SynP130-140), in words", "setting": "FABP3; QCM", "value": "about the same affinity"}]}]}
